Paper PMC7032593 (Nature cell biology, 2019)
Each block holds one binder with its values, some of them ahead of it.

Columns and labels:
[1] = molecular target: ATG16L1β (full-length human ATG16L1, β isoform) (human, UniProt Q676U5 1-607); experiment: tandem affinity co-purification
[2] = molecular target: GST-ATG12-5–16L1β complex (human, UniProt O94817 1-140; Q9H1Y0 1-275; Q676U5 1-607); experiment: pull-down
Chain of GST-ATG12-5–16L1β complex (Q676U5 whole entry, one chain of several): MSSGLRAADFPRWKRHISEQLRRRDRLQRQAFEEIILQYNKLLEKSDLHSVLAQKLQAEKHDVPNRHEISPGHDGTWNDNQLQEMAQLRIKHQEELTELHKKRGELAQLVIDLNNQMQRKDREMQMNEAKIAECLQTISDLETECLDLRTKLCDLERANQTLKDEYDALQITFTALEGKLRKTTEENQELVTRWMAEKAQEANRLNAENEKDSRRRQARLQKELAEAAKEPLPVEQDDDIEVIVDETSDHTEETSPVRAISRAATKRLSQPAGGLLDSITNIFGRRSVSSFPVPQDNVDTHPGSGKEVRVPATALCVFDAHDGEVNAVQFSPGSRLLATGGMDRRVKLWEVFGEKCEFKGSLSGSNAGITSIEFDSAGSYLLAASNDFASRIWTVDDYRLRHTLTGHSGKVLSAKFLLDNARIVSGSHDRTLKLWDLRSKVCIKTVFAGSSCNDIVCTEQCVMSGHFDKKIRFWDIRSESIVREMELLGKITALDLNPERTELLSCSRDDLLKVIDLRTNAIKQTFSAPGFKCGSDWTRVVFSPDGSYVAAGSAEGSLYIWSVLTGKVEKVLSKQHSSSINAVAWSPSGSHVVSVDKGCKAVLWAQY

Chain of ATG16L1β (full-length human ATG16L1, β isoform) (Q676U5 whole entry, canonical isoform): as the sequence (Q676U5 whole entry, one chain of several) above

binding result [1]: binds
B1: ATG12–ATG5 conjugate (GST-ATG12 with untagged ATG5) (complex, human)
chain 1: MAEEPQSVLQLPTSIAAGGEGLTDVSPETTTPEPPSSAAVSPGTEEPAGDTKKKIDILLKAVGDTPIMKTKKWAVERTRTIQGLIDFIKKFLKLVASEQLFIYVNQSFAPSPDQEVGTLYECFGSDGKLVLHYCKSQAWG
chain 2: MTDDKDVLRDVWFGRIPTCFTLYQDEITEREAEPYYLLLPRVSYLTLVTDKVKKHFQKVMRQEDISEIWFEYEGTPLKWHYPIGLLFDLLASSSALPWNITVHFKSFPEKDLLHCPSKDAIEAHFMSCMKEADALKHKSQVINEMQKKDHKQLWMGLQNDRFDQFWAINRKLMEYPAEENGFRYIPFRIYQTTTERPFIQKLFRPVAADGQLHTLGDLLKEVCPSAIDPEDGEKKNQVMIHGIEPMLETPLQWLSEHLSYPDNFLHISIIPQPTD

binding result [2]: binds
B2: ATG3 WT (enzyme)
chain: not shown
